In data set [1] the test system is HT29 cells. The experiment in a line: Protease assay: RPM phage binding to protease-treated cells. To be noted: 37° C. The protocol:
HT29 cells were incubated at 37° C. with either active or boiled Collagenase diluted 1:20 for 10 minutes, Trypsin-EDTA 0.25% (Gibco) for 5 minutes or Proteinase K (Gibco) diluted 1:600 for 1 minute. After incubation, cells were then incubated with RPM bearing phage as described above. The number of phage remaining bound was quantified by real time PCR.
(§1) In order to further this observation, HT29 cells were treated with active or boiled proteases to determine the effect of treatment on the ability of an RPM displaying phage to bind. HT29 cells were treated with active or boiled collagenase for 15 minutes, trypsin for 5 minutes, or proteinase K for 0.5 minutes at 37° C. After protease treatment, cells were washed, then an equal number of phage were added and allowed to bind. […] The decrease in phage binding to the HT29 cells was due to the protease activity since boiling the proteases abolished the effect with phage binding returning to levels of that observed for PBS treated cells (FIG. 6B). […] After treating HT29 cells with proteases as described above, MTT was added to the cells and incubated for 45 minutes at 37° C. After incubation, the cells were solubilized with 0.1N HCl in isopropanol and the absorbance due to MTT incorporation was determined.

The test system of data set [2] is HT29 cells. The experiment in a line: MTT viability of protease-treated cells. To be noted: MTT 45 minutes at 37° C. after protease treatment. The data set is classed as cell-based. The procedure:
as §1

B1: proteinase K: protease used to treat HT29 cells (protein, UniProt P06873 106-384, looked up)
Proteinase K: AAQTNAPWGLARISSTSPGTSTYYYDESAGQGSCVYVIDTGIEASHPEFEGRAQMVKTYYYSSRDGNGHGTHCAGTVGSRTYGVAKKTQLFGVKVLDDNGSGQYSTIIAGMDFVASDKNNRNCPKGVVASLSLGGGYSSSVNSAAARLQSSGVMVAVAAGNNNADARNYSPASEPSVCTVGASDRYDRRSSFSNYGSVLDIFGPGTSILSTWIGGSTRSISGTSMATPHVAGLAAYLMTLGKTTAASACRYIADTANKGDLSNIPFGTVNLLAYNNYQA
Turning to B1, the “decrease of RPM phage binding to active protease treated HT29 cells” value in the data set on HT29 cells [1] came out at 90%. The “average absorbance (MTT incorporation) of treated cells” value in the data set with HT29 cells [2] stood at 0.183.

The values above are taken from patent US7452965B2, “Colon tumor specific binding peptides” (University of Utah Research Foundation, priority 2002, dated 2008).
